# In publication PMC7815104:
# Target: recombinant soluble canine IL-10 receptor alpha chain (R1), extra-cytoplasmic domain (canine)
# Assay: SPR; rcasIL-10R1 covalently immobilised (EDC/NHS) on a CM5 chip to 1000 RU, Biacore T100; cytokines in PBS with 0.05% Tween 20 applied for 2 min 30 s; each sample evaluated twice, mean ± SD of RU
substance,measurement,value
recombinant canine IL-10 (from UniProt P48411 20-181) (ligand),RU at 31.2 ng/mL,211 RU
same,RU at 125 ng/mL (plateau),1720 RU
same,binding equilibrium constant (EC80),51.4 nM
